Source: US20190010203A1 (ADEPTHERA, published 2019)
Non-standard residues stand in square brackets, D forms with d. No end group written: not given here. *: point of attachment. Palmitoyl = CCCCCCCCCCCCCCCC(=O)*; AEEEA = NCCOCCOCCOCC(=O)O; AEEA = NCCOCCOCC(=O)O

B1: SEQ ID NO: 78 (peptide)
peptide: [AEEEA]K(Palmitoyl)VQKLAHQIYQFTDKDKDNSAPVDPSSPHSY-NH2
modifications: N-terminus assumed
SMILES: CCCCCCCCCCCCCCCC(=O)NCCCC[C@H](NC(=O)COCCOCCOCCN)C(=O)N[C@H](C(=O)N[C@@H](CCC(N)=O)C(=O)N[C@@H](CCCCN)C(=O)N[C@@H](CC(C)C)C(=O)N[C@@H](C)C(=O)N[C@@H](Cc1c[nH]cn1)C(=O)N[C@@H](CCC(N)=O)C(=O)N[C@H](C(=O)N[C@@H](Cc1ccc(O)cc1)C(=O)N[C@@H](CCC(N)=O)C(=O)N[C@@H](Cc1ccccc1)C(=O)N[C@H](C(=O)N[C@@H](CC(=O)O)C(=O)N[C@@H](CCCCN)C(=O)N[C@@H](CC(=O)O)C(=O)N[C@@H](CCCCN)C(=O)N[C@@H](CC(=O)O)C(=O)N[C@@H](CC(N)=O)C(=O)N[C@@H](CO)C(=O)N[C@@H](C)C(=O)N1CCC[C@H]1C(=O)N[C@H](C(=O)N[C@@H](CC(=O)O)C(=O)N1CCC[C@H]1C(=O)N[C@@H](CO)C(=O)N[C@@H](CO)C(=O)N1CCC[C@H]1C(=O)N[C@@H](Cc1c[nH]cn1)C(=O)N[C@@H](CO)C(=O)N[C@@H](Cc1ccc(O)cc1)C(N)=O)C(C)C)[C@@H](C)O)[C@@H](C)CC)C(C)C

What was measured:
Test in all cases: cell-based or functional assay
CLR/RAMP1 receptor [1] = molecular target: T1, CLR/RAMP1 receptor (UniProt Q16602 23-461; O60894 27-148, limits assumed)
T1 sequence (Q16602 23-461 limits assumed, chain 1 of 2): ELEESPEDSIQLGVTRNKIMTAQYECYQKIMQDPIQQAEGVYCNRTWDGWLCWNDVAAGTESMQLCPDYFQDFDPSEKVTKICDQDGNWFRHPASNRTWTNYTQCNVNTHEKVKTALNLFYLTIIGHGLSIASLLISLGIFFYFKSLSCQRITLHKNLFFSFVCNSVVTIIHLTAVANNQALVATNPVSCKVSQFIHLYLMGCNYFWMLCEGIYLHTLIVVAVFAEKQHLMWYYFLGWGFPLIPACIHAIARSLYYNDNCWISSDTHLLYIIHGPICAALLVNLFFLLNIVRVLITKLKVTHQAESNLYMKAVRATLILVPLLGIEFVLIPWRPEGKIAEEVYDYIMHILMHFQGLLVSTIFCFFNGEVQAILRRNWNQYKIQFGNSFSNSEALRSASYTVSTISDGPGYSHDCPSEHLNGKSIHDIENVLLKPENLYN
T1 sequence (O60894 27-148 limits assumed, chain 2 of 2): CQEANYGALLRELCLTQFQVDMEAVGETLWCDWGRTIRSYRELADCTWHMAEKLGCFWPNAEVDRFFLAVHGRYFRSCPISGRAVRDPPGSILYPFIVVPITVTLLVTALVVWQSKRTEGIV

CLR/RAMP3 receptor [2] = molecular target: T2, CLR/RAMP3 receptor (UniProt Q16602 23-461; O60896 24-148, limits assumed)
T2 sequence (Q16602 23-461 limits assumed, chain 1 of 2): as the sequence (Q16602 23-461 limits assumed, chain 1 of 2) above
T2 sequence (O60896 24-148 limits assumed, chain 2 of 2): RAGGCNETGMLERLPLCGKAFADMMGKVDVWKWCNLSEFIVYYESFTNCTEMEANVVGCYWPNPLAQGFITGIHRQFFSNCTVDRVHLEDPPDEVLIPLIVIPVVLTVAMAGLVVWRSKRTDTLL

CLR/RAMP2 receptor [3] = molecular target: T3, CLR/RAMP2 receptor (UniProt Q16602 23-461; O60895 43-175, limits assumed)
T3 sequence (Q16602 23-461 limits assumed, chain 1 of 2): as the sequence (Q16602 23-461 limits assumed, chain 1 of 2) above
T3 sequence (O60895 43-175 limits assumed, chain 2 of 2): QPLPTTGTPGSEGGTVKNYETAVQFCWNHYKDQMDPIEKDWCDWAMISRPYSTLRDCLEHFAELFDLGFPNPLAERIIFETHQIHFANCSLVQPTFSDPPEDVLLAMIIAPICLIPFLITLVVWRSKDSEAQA

CLR/RAMP1 receptor [4] = molecular target: T1, CLR/RAMP1 receptor; remark: listed apart in the source
CLR/RAMP3 receptor [5] = molecular target: T2, CLR/RAMP3 receptor; remark: listed apart in the source
CLR/RAMP2 receptor [6] = molecular target: T3, CLR/RAMP2 receptor; remark: listed apart in the source

| Binder | EC50 (nM), CLR/RAMP3 cAMP assay (CLR/RAMP3 receptor [2]) [nM] | IC50 (nM), CGRP-stimulated CLR/RAMP1 cAMP assay (CLR/RAMP1 receptor [4]) [nM] | IC50 (nM), CLR/RAMP3 cAMP antagonist assay (CLR/RAMP3 receptor [5]) [nM] | IC50 (nM), ADM-stimulated CLR/RAMP2 arrestin assay (CLR/RAMP2 receptor [6]) [nM] | further results |
| --- | --- | --- | --- | --- | --- |
| Palmitoyl-KGCRFGTCTVQKLAHQIYQFTDKDVAPRSKISPQGY-NH2 (ends and bridges not checked) [SEQ ID NO: 103] | 0.3 |  |  |  | EC50 (nM), CLR/RAMP1 cAMP assay (CLR/RAMP1 receptor [1]): 4.5 nM; EC50 (nM), CLR/RAMP2 arrestin assay (CLR/RAMP2 receptor [3]): 0.7 nM |
| Palmitoyl-KGCRFGTCTVQKLAHQIYQFTDKDSAPVDPSSPHSY-NH2 (ends and bridges not checked) [SEQ ID NO: 92] | 0.2 |  |  |  | EC50 (nM), CLR/RAMP1 cAMP assay (CLR/RAMP1 receptor [1]): 0.4 nM; EC50 (nM), CLR/RAMP2 arrestin assay (CLR/RAMP2 receptor [3]): 0.3 nM |
| Palmitoyl-KVQKLAHQIYSAPVDPSSPHSY-NH2 [SEQ ID NO: 122] |  | 7.3 | 4.1 | 61 |  |
| [AEEA]K(Palmitoyl)VQKLAHQIYQFTDKDSAPVDPSSPHSY-NH2 [SEQ ID NO: 112] |  | 1.8 | 2.3 | 5.3 |  |
| Palmitoyl-KVQKLAHQISAPVDPSSPHSY-NH2 [SEQ ID NO: 123] |  | 4.7 |  | 50 |  |
| KGCRFGTCTVQKLAHQIYQFTDKDKDNVAPRSKISPQGY (N-terminal miniPEG; palmitoyl on Lys 1 side chain, K(PAL); C-terminal amide) [SEQ ID NO: 69] | 0.6 |  |  |  | EC50 (nM), CLR/RAMP2 arrestin assay (CLR/RAMP2 receptor [3]): 0.6 nM |
| Palmitoyl-KVQKLAHQSAPVDPSSPHSY-NH2 [SEQ ID NO: 124] |  |  |  |  | Max Activity % of positive control, CGRP-stimulated CLR/RAMP1 antagonist assay (CLR/RAMP1 receptor [4]): 95 % of positive control; Max Activity % of positive control, CLR/RAMP3 antagonist assay (CLR/RAMP3 receptor [5]): 102 % of positive control; Max Activity % of positive control, ADM-stimulated CLR/RAMP2 antagonist assay (CLR/RAMP2 receptor [6]): 103 % of positive control |
| Palmitoyl-KVQNLSHRLWQLMGPAGSAPVDPSSPHSY-NH2 [SEQ ID NO: 120] |  | 5.8 | 9.2 | 85 |  |
| Palmitoyl-KVQKLAHQIYQFTDKDSAPVDPSSPHSY-NH2 [SEQ ID NO: 121] |  | 3.2 | 1.8 | 4.9 |  |
| [AEEA]K(Palmitoyl)VQKLAHQIYSAPVDPSSPHSY-NH2 [SEQ ID NO: 114] |  | 4.8 | 8.4 | 146 |  |
| B1 |  | 4.8 | 0.8 | 34 | Max Activity % of positive control, CGRP-stimulated CLR/RAMP1 antagonist assay (CLR/RAMP1 receptor [4]): 104 % of positive control; Max Activity % of positive control, CLR/RAMP3 antagonist assay (CLR/RAMP3 receptor [5]): 101 % of positive control; Max Activity % of positive control, ADM-stimulated CLR/RAMP2 antagonist assay (CLR/RAMP2 receptor [6]): 107 % of positive control |
| Ac-VTHRLAGLLSRFTDKDKDNVAPRSKISPQGY-NH2 [SEQ ID NO: 115] |  | 1880 | 115 | 117 |  |
| Ac-TVQKLAHRLWQLMGPDKDNVAPRSKISPQGY-NH2 [SEQ ID NO: 116] |  | 152 | 53 | 7.3 |  |
| Palmitoyl-KVQKLAHQIYQFTDKDVAPRSKISPQGY-NH2 [SEQ ID NO: 119] |  | 21 | 1.5 | 0.6 |  |
| miniPEG-K(Palmitoyl)GCRFGTCTVQKLAHQIYQFTDKDSAPVDPSSPHSY-NH2 (ends and bridges not checked) [SEQ ID NO: 48] | 0.07 |  |  |  | EC50 (nM), CLR/RAMP1 cAMP assay (CLR/RAMP1 receptor [1]): 0.3 nM; EC50 (nM), CLR/RAMP2 arrestin assay (CLR/RAMP2 receptor [3]): 0.2 nM |
| miniPEG-K(Palmitoyl)GCRFGTCTVQKLAHQIYQFTDKDVAPRSKISPQGY-NH2 (ends and bridges not checked) [SEQ ID NO: 101] | 0.5 |  |  |  |  |
